B1: Azoarcus group I ribozyme (parent)
chain: GUGCCUUGCGCCGGGAAACCACGCAAGGGAUGGUGUCAAAUUCGGCGAAACCUAAGCGCCCGCCCGGGCGUAUGGCAACGCCGAGCCAAGCUUCGGCGCCUGCGCCGAUGAAGGUGUAGAGACUAGACGGCACCCACCUAAGGCAAACGCUAUGGUGAAGGCAUAGUCCAGGGAGUGGCGAAAGUCACACAAACCGG

In the series the parent is B1. Description: reverse-splicing fitness (ratio to wild type); higher = more active; in vitro selection; Mg2+ level not given. In outline:
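An in vitro group I ribozyme library with randomized positions was T7-transcribed and gel-purified. In triplicate, 10 pmol RNA in EPPS pH 7.5 was reacted with 50 pmoles of a 30-nt RNA substrate for 1 h at 37 °C across several added MgCl2 levels (1–48 mM), then stopped with EDTA. Products were reverse transcribed from a substrate-complementary primer, PCR-amplified and sequenced (HiSeq 4000). Fitness is a variant's read proportion after selection over that before, normalised to wild type.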
As to C82A A111C A120G A145U C150G U176A, the reverse-splicing fitness came out at 0.0064.
As for C82U A120G A145C C150G C169G U176C, the figure is 0.00713; as for C82A A145U C150G C169U U176C, 0.0116; as for C82A A111U A120U C150A C169U, 0.00495.
As for A111U A120C A145C C150A U176C, the figure is 0.0236; as for A111C A145U C169A U176C, 0.018; as for C82A A111G A120U A145U C169U U176A, 0.00277.
As for A111C A145U C150G U176C, the figure is 0.119; as for A145G C150U C169U U176G, 0.00803; as for C82A A120G C150A C169U U176C, 0.0215.
As for C82A A120U A145C C150U C169A U176C, the reverse-splicing fitness turned out to be 0.00251.
As for A120C A145C C169G, the figure is 0.0239; as for C82U A111C A120G A145C C150G C169G U176G, 0.00437.
As for C82G A111G A120G A145U C169A, the figure is 0.0118.
As for C82A A111G A145C C150U C169G U176G, the figure is 0.00676; as for C82U A111C C150U C169G, 0.00731.
Take C82A A111C A120C A145C C150U C169U U176A: the reverse-splicing fitness was determined as 0.0135.
Under C82A A111G A145U C169A U176C stands 0.0104; under C82A A111U A120C A145U C150U C169A, 0.0111.
Under C82G A111G A120C A145C C150A C169A U176A stands 0.0183; under C82U A111C A120G C150U C169G U176A, 0.0121.
Under C82G A111U A120U A145G C150A U176C stands 0.00757; under C82U A111C A120U A145G C169U U176A, 0.00527.
On to C82U A120G C169G U176G, for which the reverse-splicing fitness is 0.00332.
As for C82A A111C A120G A145G C150G U176G, the figure is 0.00573; as for C82A A120G C150G C169G U176C, 0.00462.
As for C82A A111C A145G C150G C169G, the figure is 0.00662.
As for C82G A111G A120C C169A U176C, the figure is 0.0162; as for A111G A120C C150G U176G, 0.00371; as for C82U A111C A145G C169A, 0.00937.
A111U A120U A145U C150G C169A U176A: the reverse-splicing fitness worked out at 0.00319.
C82U A111U A145C C150A C169G: the reverse-splicing fitness was 0.00741.
Under C82U A111U C150U C169U U176C stands 0.0152; under C82U A111C A145G C150U C169G, 0.00802.
As for A111C A120G C150U C169U, the figure is 0.0919; as for C82A A120C A145G C150A C169A U176G, 0.00876; as for C82A A111U A145C C169U U176G, 0.00582.
A145U U176G: the reverse-splicing fitness was 0.462.
Under A111C A120C A145G C150G stands 0.0633; under A111G A145G C150U U176G, 0.25.
Under A111G A120G A145G C150G C169G U176G stands 0.0054.
Consider A120C A145C C150U C169G U176C, for which the reverse-splicing fitness is 0.00823.
Under C82G A111C A120C A145C C150G C169A stands 0.00859; under C82G A111G A120U A145G U176A, 0.0143.
As for C82G A145G C150G C169U U176G, the figure is 0.0072.
Under C82A A111G A120G A145C stands 0.0136; under C82A A111G C150A C169G U176G, 0.00691; under C82A A120U C150G C169G U176A, 0.00506.
Regarding C82G A111G A120U A145C C150U U176A, the reverse-splicing fitness came to 0.00647.
For C82G A111C A120U A145G C150U C169G U176C, the reverse-splicing fitness worked out at 0.00437.
As for A111G A120U A145G C150G C169G U176C, the figure is 0.00396.
As for C82G A120G A145C C150G U176C, the figure is 0.00894; as for C82U A111C A120G A145U C150U U176C, 0.0178; as for C82A A111U A145C C169G, 0.00993.
Under C82G A111C A120C C150U C169G U176C stands 0.0171; under C82G A120U A145G C150G C169U U176C, 0.00701.
A111G A145C C150G U176A: the reverse-splicing fitness came out at 0.17.
As for A111U A120U A145C C150A C169A U176C, the figure is 0.00287; as for A111U C150G C169G, 0.00998; as for C82A A120U A145C C150G C169U U176C, 0.00254.
As for C82G A111C A120U A145C C150G C169U, the figure is 0.00395; as for C82G A120U U176C, 0.113.
Regarding C82A A111C C150U C169U U176G, the reverse-splicing fitness was determined as 0.00804.
In the case of A145U C150G, the reverse-splicing fitness stood at 0.512.
Under A111G C150G C169G U176A stands 0.00723; under C82G A111U A120U A145G C169U U176A, 0.00386; under A111C A120C A145C C150U, 0.175.
Under C82G A111C A120G C150A C169U U176A stands 0.022; under A111U A145G C169G U176A, 0.0249; under C82U A111C A145C C150G C169U, 0.00936.
As for C82U A120G A145U C150U C169G U176G, the figure is 0.00343.
In the case of C82G A120U A145G C169G U176G, the reverse-splicing fitness was determined as 0.00145.
With A120C A145C C150A C169A U176A, the reverse-splicing fitness was 0.00897.
Regarding A111C A120U A145G C150G C169U U176C, the reverse-splicing fitness was determined as 0.00769.
Under C82G A145G C169U U176A stands 0.0138; under A120U A145G C150A C169A, 0.00622; under A111G A120C A145C C150U C169A U176G, 0.00419.
Regarding C82U A111U A120C A145U C150U C169G U176C, the reverse-splicing fitness is 0.0115.
Under C82G A111G A120C U176A stands 0.0255.
On to C82U A111U A120U A145U C150G C169U, for which the reverse-splicing fitness is 0.00272.
Regarding A111G A120G A145U C150G C169U U176C, the reverse-splicing fitness worked out at 0.0171.
As for C82G A145U C150G C169U U176G, the figure is 0.0049.
For the variant C82U A111G A120U A145U C150G C169U U176G, the reverse-splicing fitness was found to be 0.00213.
As for C82G A111U A145C C169A U176C, the reverse-splicing fitness was 0.00791.

These data come from the RNAGym collection of RNA variant scans (doi:10.1093/molbev/msab373).
